Results from paper PMC9342958.

B1: BCL10 full-length fused to mEos3.1 [human] / itself (parent)
chain: MEPTAPSLTEEDLTEVKKDALENLRVYLCEKIIAERHFDHLRAKKILSREDTEEISCRTSSRKRAGKLLDYLQENPKGLDTLVESIRREKTQNFLIQKITDEVLKLRNIKLEHLKGLKCSSCEPFPDGATNNLSRSNSDESNFSEKLRASTVMYHPEGESSTTPFFSTNSSLNLPVLEVGRTENTIFSSTTLPRPGDPGAPPLPPDLQLEEEGTCANSSEMFLPLRSRTVSRQ

Variants of: B1
Assay: DAmFRET (Weibull fit) in yeast cells, homotypic self-assembly
Conditions: with itself; read off a plot

Row | screen value | Variant
1 | 0.38 | MEPTAPSLTEEDLTEVKKDALENLRVYLCEKIIAERHFDHLRAKKILSREDTEEISCQTSSRKRAGKLLDYLQENPKGLDTLVESIRREKTQNFLIQKITDEVLKLRNIKLEHLKGLKCSSCEPFPDGATNNLSRSNSDESNFSEKLRASTVMYHPEGESSTTPFFSTNSSLNLPVLEVGRTENTIFSSTTLPRPGDPGAPPLPPDLQLEEEGTCANSSEMFLPLRSRTVSRQ [chain 1 R58Q]
2 | 0.34 | MEPTAPSLTEEDLTEVKKDALENLRVYLCEKIIAERHFDHLRAKKILSREDTEEISCGTSSRKRAGKLLDYLQENPKGLDTLVESIRREKTQNFLIQKITDEVLKLRNIKLEHLKGLKCSSCEPFPDGATNNLSRSNSDESNFSEKLRASTVMYHPEGESSTTPFFSTNSSLNLPVLEVGRTENTIFSSTTLPRPGDPGAPPLPPDLQLEEEGTCANSSEMFLPLRSRTVSRQ [chain 1 R58G]
3 | 0.35 | MEPTAPSLTEEDLTEVKKDALENLRVYLCEKIIAERHFDHLRAKKILSREDTEEISCLTSSRKRAGKLLDYLQENPKGLDTLVESIRREKTQNFLIQKITDEVLKLRNIKLEHLKGLKCSSCEPFPDGATNNLSRSNSDESNFSEKLRASTVMYHPEGESSTTPFFSTNSSLNLPVLEVGRTENTIFSSTTLPRPGDPGAPPLPPDLQLEEEGTCANSSEMFLPLRSRTVSRQ [chain 1 R58L]
